Measured values taken from patent US20160002331A1 (Pfizer, published 2016).
“And” between values parts separate entries of the source, which are not always exact repeats. Equal values may be shown once.

Legend:
[1] = molecular target: T1, full-length human Notch1 expressed on the cell surface (human, UniProt P46531 19-2555); assay: cell-based or functional assay
[2] = molecular target: T1, full-length human Notch1 expressed on …; assay: cell-based or functional assay; remark: listed apart in the source
[3] = molecular target: T2, full-length mouse Notch1 expressed on the cell surface of U-2 OS cells (mouse, UniProt Q01705 19-2531); assay: cell-based or functional assay
T2 sequence (Q01705 19-2531): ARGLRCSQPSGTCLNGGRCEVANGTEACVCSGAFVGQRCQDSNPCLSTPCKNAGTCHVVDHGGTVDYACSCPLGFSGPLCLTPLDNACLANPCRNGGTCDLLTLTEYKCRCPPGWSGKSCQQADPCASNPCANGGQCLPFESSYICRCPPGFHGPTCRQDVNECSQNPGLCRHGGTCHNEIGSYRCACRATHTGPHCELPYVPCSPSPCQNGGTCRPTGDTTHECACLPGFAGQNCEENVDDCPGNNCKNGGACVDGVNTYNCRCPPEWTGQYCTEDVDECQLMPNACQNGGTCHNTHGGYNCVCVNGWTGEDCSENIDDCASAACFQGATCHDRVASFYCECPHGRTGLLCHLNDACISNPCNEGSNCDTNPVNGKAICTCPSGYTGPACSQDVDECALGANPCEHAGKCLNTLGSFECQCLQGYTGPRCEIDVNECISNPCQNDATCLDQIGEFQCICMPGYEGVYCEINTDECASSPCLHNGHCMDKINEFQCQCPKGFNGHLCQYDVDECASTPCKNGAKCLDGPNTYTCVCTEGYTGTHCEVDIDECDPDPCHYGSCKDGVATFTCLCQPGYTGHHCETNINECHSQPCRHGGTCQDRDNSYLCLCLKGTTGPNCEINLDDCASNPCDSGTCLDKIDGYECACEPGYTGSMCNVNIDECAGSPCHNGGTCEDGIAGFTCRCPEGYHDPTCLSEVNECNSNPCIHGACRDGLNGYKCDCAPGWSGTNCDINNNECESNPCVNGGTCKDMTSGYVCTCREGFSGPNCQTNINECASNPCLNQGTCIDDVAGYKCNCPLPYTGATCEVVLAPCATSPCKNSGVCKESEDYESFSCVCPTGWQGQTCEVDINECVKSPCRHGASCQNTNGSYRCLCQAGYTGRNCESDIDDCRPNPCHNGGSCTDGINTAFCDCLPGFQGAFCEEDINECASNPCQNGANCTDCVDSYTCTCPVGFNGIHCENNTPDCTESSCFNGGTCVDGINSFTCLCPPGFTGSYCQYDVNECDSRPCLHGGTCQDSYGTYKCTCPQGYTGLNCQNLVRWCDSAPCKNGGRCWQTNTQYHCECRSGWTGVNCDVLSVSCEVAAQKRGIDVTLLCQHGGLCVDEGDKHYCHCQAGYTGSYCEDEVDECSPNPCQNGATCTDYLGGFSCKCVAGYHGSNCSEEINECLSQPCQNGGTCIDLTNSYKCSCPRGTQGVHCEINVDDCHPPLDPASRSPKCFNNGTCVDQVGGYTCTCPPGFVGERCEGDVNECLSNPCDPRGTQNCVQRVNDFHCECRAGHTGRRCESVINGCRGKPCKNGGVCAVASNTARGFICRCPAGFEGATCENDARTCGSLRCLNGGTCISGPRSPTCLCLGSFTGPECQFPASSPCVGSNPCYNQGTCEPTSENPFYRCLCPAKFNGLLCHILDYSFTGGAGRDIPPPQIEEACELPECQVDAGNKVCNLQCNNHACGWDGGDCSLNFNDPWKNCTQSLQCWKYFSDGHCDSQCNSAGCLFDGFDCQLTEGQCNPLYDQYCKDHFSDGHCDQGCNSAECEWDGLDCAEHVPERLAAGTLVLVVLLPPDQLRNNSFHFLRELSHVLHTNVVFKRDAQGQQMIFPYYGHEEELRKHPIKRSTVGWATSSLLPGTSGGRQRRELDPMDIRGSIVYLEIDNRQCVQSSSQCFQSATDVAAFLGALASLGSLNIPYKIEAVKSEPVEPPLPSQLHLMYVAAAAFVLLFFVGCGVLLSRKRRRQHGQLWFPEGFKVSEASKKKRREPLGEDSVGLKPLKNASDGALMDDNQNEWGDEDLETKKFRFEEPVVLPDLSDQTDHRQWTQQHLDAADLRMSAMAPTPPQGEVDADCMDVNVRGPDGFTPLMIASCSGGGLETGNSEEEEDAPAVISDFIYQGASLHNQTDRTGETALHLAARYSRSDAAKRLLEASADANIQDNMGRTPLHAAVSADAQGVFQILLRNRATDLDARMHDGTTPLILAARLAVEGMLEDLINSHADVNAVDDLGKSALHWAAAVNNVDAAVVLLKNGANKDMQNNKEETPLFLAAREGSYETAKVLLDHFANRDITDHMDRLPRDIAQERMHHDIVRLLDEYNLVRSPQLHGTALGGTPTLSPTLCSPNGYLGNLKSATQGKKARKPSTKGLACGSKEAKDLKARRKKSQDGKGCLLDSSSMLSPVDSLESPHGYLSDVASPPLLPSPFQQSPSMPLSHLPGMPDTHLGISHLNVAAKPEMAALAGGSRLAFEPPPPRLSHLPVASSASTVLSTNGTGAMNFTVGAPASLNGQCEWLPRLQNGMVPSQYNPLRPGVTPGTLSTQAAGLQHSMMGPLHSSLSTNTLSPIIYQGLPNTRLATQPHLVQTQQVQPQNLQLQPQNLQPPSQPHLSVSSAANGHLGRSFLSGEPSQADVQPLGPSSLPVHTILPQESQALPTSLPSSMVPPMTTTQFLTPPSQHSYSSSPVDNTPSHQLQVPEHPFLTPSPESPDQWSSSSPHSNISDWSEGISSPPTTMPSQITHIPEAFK

[4] = molecular target: T3, full-length human Notch3 expressed on U-2 OS cell surface (human, UniProt Q9UM47 40-2321); assay: binding to Notch3 U-2 OS cells (N/B represents non-binding)
T3 construct: whole, on cells; also called Notch3 U2-OS cells; NotchS U-2 OS cells

[5] = molecular target: T4, human Notch1 NRR_Avi_His recombinant protein (human, UniProt P46531 1434-1737); assay: competition ELISA on coated human Notch1 NRR_Avi_His; competitor 0.8 nM biotinylated rat 438
T4 construct: Secreted from CHO-PACE cells; cleaved at S1 into an N-terminal ~26 kDa half (LNR-A, B, C, HD1) and a C-terminal ~12 kDa half (HD2 and tag) that stay associated non-covalently; written here as one chain; also called recombinant human Notch1 NRR; human Notch1 NRR immunogen
T4 sequence: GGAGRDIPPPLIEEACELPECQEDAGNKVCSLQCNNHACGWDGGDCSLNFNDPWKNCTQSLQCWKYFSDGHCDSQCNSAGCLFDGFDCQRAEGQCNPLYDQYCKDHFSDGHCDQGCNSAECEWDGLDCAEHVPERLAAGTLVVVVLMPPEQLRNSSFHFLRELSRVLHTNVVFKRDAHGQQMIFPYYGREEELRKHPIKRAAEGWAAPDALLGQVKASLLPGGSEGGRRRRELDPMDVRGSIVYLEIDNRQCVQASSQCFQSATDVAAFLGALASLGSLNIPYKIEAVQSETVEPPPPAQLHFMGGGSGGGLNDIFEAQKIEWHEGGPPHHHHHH
Method: (§1) In a similar manner as described for recombinant protein or cell based ELISAs, 96 well cell culture plates were either coated with Notch1 NRR-Avi_His protein (hi-bound co-Star plates), or seeded with full length Notch1 expressing U-2 OS cells (cell culture plate, Co-star), respectively.
(§2) After incubation for 2 hours, the plates were washed, as described above, and HRP-conjugated streptavidin (Southern Biotech) diluted 1:5000 in blocking buffer was applied. Incubation with streptavidin was allowed for 30 min before the plates were washed again and developed with TMB solution for 10 minutes. Developing reaction was stopped by adding 0.18M H₂SO₄ and absorbance at 450 nm was measured. Data plotting and analyses were performed with Microsoft Excel and Graphpad-Prizm software.

[6] = molecular target: T1, full-length human Notch1 expressed on …; assay: competition ELISA on U-2 OS cells expressing full-length human Notch1; competitor 0.8 nM biotinylated rat 438
Method: as §1, §2

[7] = molecular target: T5, Human Notch2 NRR-Fc (human, UniProt Q04721 1425-1677, limits assumed); assay: binding to recombinant NRR-Fc fusion protein (N/B represents non-binding)
T5 construct: domain: NRR region; Made in CHO-PACE cells; also called human Notch2 NRR-Fc fusion protein; not shown: human IgG1 Fc fragment
T5 sequence (looked up): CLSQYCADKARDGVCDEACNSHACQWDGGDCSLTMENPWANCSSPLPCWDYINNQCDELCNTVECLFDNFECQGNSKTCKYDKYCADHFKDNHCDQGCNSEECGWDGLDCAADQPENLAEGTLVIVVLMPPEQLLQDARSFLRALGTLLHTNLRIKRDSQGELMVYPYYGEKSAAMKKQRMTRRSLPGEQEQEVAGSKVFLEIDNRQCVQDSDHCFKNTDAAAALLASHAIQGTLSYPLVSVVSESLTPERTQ

[8] = molecular target: T6, Human Notch3 NRR-Fc (human, UniProt Q9UM47 1378-1643, limits assumed); assay: as above
T6 construct: domain: NRR region; also called human Notch3 NRR-Fc fusion protein; not shown: human IgG1 Fc fragment
T6 sequence (looked up): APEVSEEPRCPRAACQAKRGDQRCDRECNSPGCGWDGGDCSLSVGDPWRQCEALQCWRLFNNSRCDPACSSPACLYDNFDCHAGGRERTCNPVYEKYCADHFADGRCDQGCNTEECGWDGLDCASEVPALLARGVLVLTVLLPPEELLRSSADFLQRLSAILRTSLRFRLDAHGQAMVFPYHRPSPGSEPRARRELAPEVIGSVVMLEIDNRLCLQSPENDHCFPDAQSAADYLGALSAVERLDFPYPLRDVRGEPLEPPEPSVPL

[9] = molecular target: T7, Mouse Notch3 NRR-Fc (mouse, UniProt Q61982 1379-1643, limits assumed); assay: as above
T7 construct: domain: NRR region; also called mouse Notch3 NRR-Fc fusion protein; not shown: Fc part
T7 sequence (looked up): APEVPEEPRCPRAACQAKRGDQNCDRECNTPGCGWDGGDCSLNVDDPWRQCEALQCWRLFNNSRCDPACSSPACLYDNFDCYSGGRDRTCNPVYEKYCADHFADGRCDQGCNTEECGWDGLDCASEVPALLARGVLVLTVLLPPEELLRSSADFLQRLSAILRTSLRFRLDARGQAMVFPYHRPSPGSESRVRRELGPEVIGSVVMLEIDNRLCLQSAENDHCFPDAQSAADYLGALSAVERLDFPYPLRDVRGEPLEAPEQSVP

[10] = molecular target: T1, full-length human Notch1 expressed on …; assay: cell-based or functional assay; remark: listed apart in the source
[11] = molecular target: T2, full-length mouse Notch1 expressed on …; assay: cell-based or functional assay; remark: listed apart in the source
[12] = molecular target: T1, full-length human Notch1 expressed on …; assay: cell-based or functional assay; remark: listed apart in the source
[13] = molecular target: T1, full-length human Notch1 expressed on …; assay: cell-based or functional assay; remark: listed apart in the source
[14] = molecular target: T4, human Notch1 NRR_Avi_His recombinant …; assay: SPR (Biacore T100), ratio of KD to that of rat 351
[15] = molecular target: T1, full-length human Notch1 expressed on …; assay: cell-based ELISA, U-2 OS cells expressing full-length human Notch1
Method: (§3) Supernatants from clones displaying positive binding to immunogens in recombinant Notch1 NRR based ELISAs described above were then screened for cell surface Notch1 binding in a cell-based ELISA. U-2 OS cells stably overexpressing human or mouse full length Notch1 protein on cell surface were plated at 50,000 cells/well in 96 well plates (white opaque, BD/VWR) the day before ELISA assay. On the day of the ELISA, culture media were removed from wells and serially diluted (1:3 in blocking buffer) antibody solutions or hybridoma culture supernatants were applied to the plate. Plates were incubated at room temperature for 2 hours before being washed with PBS-Mg/Ca. HRP-conjugated secondary antibody was then applied and incubated with cells for 1 hour as described above for recombinant protein ELISA. Plates were washed with PBS-Mg/Ca before being developed with Pico-Chemiluminescent developing kit (Thermal Scientific), and chemiluminescence measurements were performed per manufacturer's instructions. Data plotting and analyses were performed with Microsoft Excel and Graphpad-Prizm software.

[16] = molecular target: T2, full-length mouse Notch1 expressed on …; assay: cell-based ELISA, U-2 OS cells expressing full-length mouse Notch1
Method: as §3

[17] = molecular target: T4, human Notch1 NRR_Avi_His recombinant …; assay: SPR (Biacore T100), antibody captured by anti-human IgG-Fc, NRR_Avi_His as analyte, 1:1 Langmuir model
Method: The kinetic constants of the anti-Notch1 NRR interactions were determined by surface plasmon resonance (Biacore® T100, Biacore Inc., Piscataway, N.J.). Flow cells of a CM5 chip were immobilized with approximately 10,000 Resonance Unit (RU) of anti-human IgG-Fc (Biacore®) in 10 mM Glycine, pH 5.0 at 10 μl/min for 600 seconds. […] Association of four concentrations of human Notch1 NRR_Avi_His recombinant protein (from 3.7-100 nM) and a zero concentration (running buffer) at 100 μl/min were recorded for 3 minutes in TBS with 1 mM CaCl₂. Dissociation of the complexes was measured for 10 minutes. The surface of the chip was regenerated by injecting 3M MgCl₂ with 3 mM EGTA for 60 seconds at 10 μl/min. Curves obtained after subtraction of the reference and buffer signals were fitted to a 1:1 Langmuir binding model with Biacore® T100 Evaluation Software (Biacore®).

[18] = molecular target: T1, full-length human Notch1 expressed on …; assay: competition ELISA on U-2 OS cells expressing full-length human Notch1; competitor 0.8 nM biotinylated rat 351
Method: as §1, §2

T1 sequence (P46531 19-2555): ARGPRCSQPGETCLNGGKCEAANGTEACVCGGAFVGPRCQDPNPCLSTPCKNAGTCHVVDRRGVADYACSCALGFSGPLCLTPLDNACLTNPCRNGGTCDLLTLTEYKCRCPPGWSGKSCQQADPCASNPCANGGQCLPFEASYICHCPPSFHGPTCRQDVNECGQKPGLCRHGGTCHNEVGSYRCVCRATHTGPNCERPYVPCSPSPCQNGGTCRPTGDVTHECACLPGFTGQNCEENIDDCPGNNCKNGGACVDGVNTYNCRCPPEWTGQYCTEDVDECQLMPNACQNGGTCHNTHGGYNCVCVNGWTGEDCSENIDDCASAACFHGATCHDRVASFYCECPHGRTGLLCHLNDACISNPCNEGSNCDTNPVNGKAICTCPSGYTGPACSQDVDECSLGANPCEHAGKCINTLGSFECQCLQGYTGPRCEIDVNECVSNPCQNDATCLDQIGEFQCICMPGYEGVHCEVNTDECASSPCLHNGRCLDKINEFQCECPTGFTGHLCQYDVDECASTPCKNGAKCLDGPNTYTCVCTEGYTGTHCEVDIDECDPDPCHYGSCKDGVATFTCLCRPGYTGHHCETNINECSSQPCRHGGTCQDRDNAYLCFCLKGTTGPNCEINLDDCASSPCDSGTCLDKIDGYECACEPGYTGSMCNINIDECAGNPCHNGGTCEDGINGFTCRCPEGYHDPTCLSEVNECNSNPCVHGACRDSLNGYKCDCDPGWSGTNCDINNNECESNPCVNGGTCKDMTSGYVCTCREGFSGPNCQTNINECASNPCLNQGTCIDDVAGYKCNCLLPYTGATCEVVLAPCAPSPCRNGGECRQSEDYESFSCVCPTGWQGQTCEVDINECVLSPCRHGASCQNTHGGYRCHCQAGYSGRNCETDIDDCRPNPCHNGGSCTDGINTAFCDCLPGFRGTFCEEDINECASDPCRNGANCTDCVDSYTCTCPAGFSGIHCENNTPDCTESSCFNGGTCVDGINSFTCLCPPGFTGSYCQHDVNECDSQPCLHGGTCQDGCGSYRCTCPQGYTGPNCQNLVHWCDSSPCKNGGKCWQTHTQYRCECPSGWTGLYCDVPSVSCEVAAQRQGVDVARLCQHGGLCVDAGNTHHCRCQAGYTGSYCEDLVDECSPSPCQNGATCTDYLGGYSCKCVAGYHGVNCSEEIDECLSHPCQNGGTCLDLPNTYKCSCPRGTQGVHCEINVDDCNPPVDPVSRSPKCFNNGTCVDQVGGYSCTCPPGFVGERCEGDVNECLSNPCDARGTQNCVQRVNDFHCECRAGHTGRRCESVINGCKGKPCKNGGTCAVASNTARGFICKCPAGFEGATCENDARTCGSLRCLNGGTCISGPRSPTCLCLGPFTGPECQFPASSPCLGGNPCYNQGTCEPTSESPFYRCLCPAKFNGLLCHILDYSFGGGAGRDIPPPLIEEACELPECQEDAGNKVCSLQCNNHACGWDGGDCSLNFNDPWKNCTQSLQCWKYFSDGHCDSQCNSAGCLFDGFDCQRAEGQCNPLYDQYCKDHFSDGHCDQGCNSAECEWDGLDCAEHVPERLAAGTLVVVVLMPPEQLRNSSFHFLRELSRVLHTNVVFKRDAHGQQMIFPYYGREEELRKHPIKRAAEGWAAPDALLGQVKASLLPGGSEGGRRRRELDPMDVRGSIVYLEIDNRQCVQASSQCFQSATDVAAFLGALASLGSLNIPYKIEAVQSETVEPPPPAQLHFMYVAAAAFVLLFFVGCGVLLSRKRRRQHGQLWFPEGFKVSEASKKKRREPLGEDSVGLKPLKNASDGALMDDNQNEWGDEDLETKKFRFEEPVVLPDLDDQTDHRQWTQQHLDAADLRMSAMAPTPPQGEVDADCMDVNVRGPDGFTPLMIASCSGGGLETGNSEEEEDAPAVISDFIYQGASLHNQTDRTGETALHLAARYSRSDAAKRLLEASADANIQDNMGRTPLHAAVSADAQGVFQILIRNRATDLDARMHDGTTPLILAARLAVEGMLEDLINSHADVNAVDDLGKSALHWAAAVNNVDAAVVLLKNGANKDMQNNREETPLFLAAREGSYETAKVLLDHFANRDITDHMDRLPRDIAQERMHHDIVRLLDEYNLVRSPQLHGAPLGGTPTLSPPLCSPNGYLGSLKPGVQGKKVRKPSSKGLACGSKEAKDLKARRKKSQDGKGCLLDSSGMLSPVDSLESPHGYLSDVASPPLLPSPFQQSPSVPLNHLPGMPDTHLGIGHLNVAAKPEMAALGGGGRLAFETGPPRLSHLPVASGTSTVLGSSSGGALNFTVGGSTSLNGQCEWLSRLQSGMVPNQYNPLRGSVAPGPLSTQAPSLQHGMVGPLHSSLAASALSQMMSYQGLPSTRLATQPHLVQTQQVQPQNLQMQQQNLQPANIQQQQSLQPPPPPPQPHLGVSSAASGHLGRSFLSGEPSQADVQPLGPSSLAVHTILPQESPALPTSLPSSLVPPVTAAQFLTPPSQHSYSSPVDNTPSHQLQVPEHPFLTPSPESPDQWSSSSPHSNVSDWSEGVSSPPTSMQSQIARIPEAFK

B1: rat 438-mIgG1 (antibody, V domains shown)
VH: AVQLVESGGGLVQPGRSLKLSCTASGFTFSSFAMAWVRQAPTKGLEWVASISYGGADTYYRDSVKGRFTISRDNAKSSLYLQMDSLRSEDTSTYYCAKDLPYYGYTPFVMDAWGQGTSVTVSS
VL: DIMLTQSPPTLSVTPGETISLSCRASQRINTDLHWYQQKPNESPRVLIKFASQTISGVPSRFSGSGSGTDFTLNINRVEPEDFSVYYCQQSNSWPYTFGAGTKLELK
notes: also called r438-mIgG; Rat438-mlgG
Firefly/Renilla Luminescence, human Notch1 reporter cells + 5 mM EDTA, 0.01 µg/mL antibody [1]: 338 Firefly/Renilla ratio | Firefly/Renilla Luminescence, human Notch1 reporter cells + 5 mM EDTA, 0.1 µg/mL antibody [1]: 246 Firefly/Renilla ratio | Firefly/Renilla Luminescence, human Notch1 reporter cells + 5 mM EDTA, 1 µg/mL antibody [1]: 117 Firefly/Renilla ratio | Firefly/Renilla Luminescence, human Notch1 reporter cells + 5 mM EDTA, 10 µg/mL antibody [1]: 54.3 Firefly/Renilla ratio | Firefly/Renilla Luminescence, human Notch1 reporter cells + 5 mM EDTA, 30 µg/mL antibody [1]: 46.9 Firefly/Renilla ratio | IC50, human Notch1 reporter gene co-culture assay (DLL4-HEK293) [2]: 0.68 nM | IC50, mouse Notch1 reporter gene co-culture assay (DLL4-HEK293) [3]: 0.71 nM | binding result [4]: no binding | EC50 [5]: 1.5 nM | EC50 [6]: 3.6 nM

B2: humanized 351 VH1.0/VL1.1 (antibody, human IgG1, kappa, V domains shown)
VH: EVQLVESGGGLVQPGGSLRLSCAASGFTFSHYGMNWVRQAPGKGLEWVASISRSGSYIRYVDTVKGRFTISRDNAKNSLYLQMNSLRAEDTAVYYCAREGQFGDYFEYWGQGTLVTVSS
VL: DIQMTQSPSSLSASVGDRVTITCRASQKISTNLHWYQQKPGKAPKILIKYASQTISGVPSRFSGSGSGTDFTLTISSLQPEDFATYYCQQTNSWPLTFGGGTKVEIKR
notes: full chains (VH1.0)-hIgG1-3M and (VL1.1)-hkappa
binding result [7]: no binding | binding result [8]: no binding | binding result [9]: no binding

B3: parental rat 351 (antibody, V domains shown)
VH: EVQLVESGGGLVQPGRSLKVSCLASGFTFSHYGMNWIRQAPGKGLDWVASISRSGSYIRYVDTVKGRFTVSRDIAKNTLYLQMTSLRSEDTALYYCAREGQFGDYFEYWGQGVMVTVSS
VL: DIMLTQSPATLSVTPGERISLSCRASQKISTNLHWYQQKPNESPRILIKYASQTISGIPSRFSGSGSGTDFTLHINTVEPEDFSVYYCQQTNSWPLTFGSGTKLEIK
notes: Rat monoclonal IgG from a hybridoma
Neutralization activity (Human RGA), IC50 [10]: 0.4 nM | Neutralization activity (murine RGA), IC50 [11]: 0.3 nM | IC50, Notch1 signaling inhibition co-culture reporter assay [12]: 0.19 nM | Maximal Inhibition (%), Notch1 signaling inhibition co-culture reporter assay [12]: 87.5% | Normalized Notch1^ICD level, CCD1076SK fibroblasts on DLL4, 0.001 µg/ml antibody [13]: 0.826 relative to untreated | Normalized Notch1^ICD level, CCD1076SK fibroblasts on DLL4, 0.01 µg/ml antibody [13]: 0.848 relative to untreated | Normalized Notch1^ICD level, CCD1076SK fibroblasts on DLL4, 0.1 µg/ml antibody [13]: 0.554 relative to untreated | Normalized Notch1^ICD level, CCD1076SK fibroblasts on DLL4, 1 µg/ml antibody [13]: 0.393 relative to untreated | Normalized Notch1^ICD level, CCD1076SK fibroblasts on DLL4, 10 µg/ml antibody [13]: 0.302 relative to untreated | Fold difference from rat 351 [14]: 1 fold | EC50 [15]: 0.1 nM | EC50 [16]: 0.07 nM | Kd [17]: 2.33 nM and 2.3 nM | koff [17]: 0.00102 s⁻¹ | kon [17]: 439000 M⁻¹ s⁻¹ | EC50 [18]: 4.43 nM
